# Publication PMC12301738 (The Journal of Biological Chemistry, 2025)
# B1: Escherichia coli RelB antitoxin, wildtype (His6-RelB) (natural protein)
# chain: MGSINLRIDDELKARSYAALEKMGVTPSEALRLMLEYIADNERLPFKQTLLSDEDAELVEIVKERLRNPKPVRVTLDEL
# B2: Escherichia coli RelB antitoxin with a stop codon at Leu66 (His6-RelBΔ66–79) (domain or fragment)
# chain: MGSINLRIDDELKARSYAALEKMGVTPSEALRLMLEYIADNERLPFKQTLLSDEDAELVEIVKER
# B3: Escherichia coli RelB antitoxin truncated at Lys70 (His6-RelBΔ70–79) (domain or fragment)
# chain: MGSINLRIDDELKARSYAALEKMGVTPSEALRLMLEYIADNERLPFKQTLLSDEDAELVEIVKERLRNP
# Target: T1, Escherichia coli RelE toxin, fluorescently labeled (RED-NHS) (Escherichia coli, UniProt P0C077)
# T1 sequence: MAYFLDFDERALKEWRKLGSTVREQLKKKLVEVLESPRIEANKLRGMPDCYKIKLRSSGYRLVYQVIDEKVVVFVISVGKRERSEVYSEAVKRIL
# Assay: other fluorescence titration
row,Binder,EC50 [nM]
1,B1,2.6
2,B2,24000
3,B3,880
